One block for each substance: values may come before it.
Legend:
[1] = biological target: human Fibronectin (R&D Systems 1918-FN) (human) (UniProt P02751); experiment: AlphaLISA integrin-ligand binding, ligand at 1.0 nM
[2] = biological target: human Vitronectin-GST tagged (EMD Millipore 08-126) (human) (UniProt P04004); experiment: AlphaLISA integrin-ligand binding, ligand at 10.0 nM
[3] = biological target: human Vitronectin-GST tagged (EMD Millipore 08-126) (human) (UniProt P04004); experiment: AlphaLISA integrin-ligand binding, ligand at 1.0 nM
[4] = biological target: human LAP (R&D system 246-LP) (human) (UniProt P01137); experiment: AlphaLISA integrin-ligand binding, ligand at 0.5 nM
[5] = biological target: human LAP (R&D system 246-LP) (human) (UniProt P01137); experiment: AlphaLISA integrin-ligand binding, ligand at 3.0 nM
[6] = biological target: mouse fibronectin (Abcam ab92784) (mouse) (UniProt P11276); experiment: AlphaLISA integrin-ligand binding, ligand at 2.5 nM
[7] = biological target: mouse fibronectin (Abcam ab92784) (mouse) (UniProt P11276); experiment: AlphaLISA integrin-ligand binding, ligand at 1.0 nM
[8] = biological target: mouse Vitronectin (Abcam ab92727) (mouse) (UniProt P29788); experiment: AlphaLISA integrin-ligand binding, ligand at 5.0 nM
mouse Vitronectin (Abcam ab92727) (mouse), sequence (P29788 20-478 limits assumed): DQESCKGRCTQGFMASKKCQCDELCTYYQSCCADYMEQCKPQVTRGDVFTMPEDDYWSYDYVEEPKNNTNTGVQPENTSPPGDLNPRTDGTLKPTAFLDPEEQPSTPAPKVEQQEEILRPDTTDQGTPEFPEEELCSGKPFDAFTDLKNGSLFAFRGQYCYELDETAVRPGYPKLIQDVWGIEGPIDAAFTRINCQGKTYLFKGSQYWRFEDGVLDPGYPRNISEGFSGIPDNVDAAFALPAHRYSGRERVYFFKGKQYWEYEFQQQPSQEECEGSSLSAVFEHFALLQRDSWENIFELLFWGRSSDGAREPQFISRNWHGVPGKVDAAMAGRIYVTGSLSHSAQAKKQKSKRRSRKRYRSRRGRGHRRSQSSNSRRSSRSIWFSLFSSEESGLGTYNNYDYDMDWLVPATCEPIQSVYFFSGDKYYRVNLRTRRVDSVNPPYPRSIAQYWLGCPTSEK

[9] = biological target: mouse Vitronectin (Abcam ab92727) (mouse) (UniProt P29788); experiment: AlphaLISA integrin-ligand binding, ligand at 2.5 nM
[10] = biological target: mouse LAP-6His (Chem partner) (mouse) (UniProt P04202); experiment: as above
mouse LAP-6His (Chem partner) (mouse), sequence (P04202 30-278 limits assumed): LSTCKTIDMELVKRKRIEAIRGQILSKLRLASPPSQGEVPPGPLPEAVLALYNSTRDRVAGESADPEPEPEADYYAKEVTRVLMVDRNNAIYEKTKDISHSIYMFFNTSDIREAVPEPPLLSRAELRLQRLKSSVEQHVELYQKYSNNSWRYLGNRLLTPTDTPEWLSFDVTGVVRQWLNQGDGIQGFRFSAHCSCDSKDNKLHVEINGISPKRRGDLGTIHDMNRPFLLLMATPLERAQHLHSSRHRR

human Fibronectin (R&D Systems 1918-FN) (human), sequence (P02751 other isoform, or with tags, fused parts or gaps limits assumed): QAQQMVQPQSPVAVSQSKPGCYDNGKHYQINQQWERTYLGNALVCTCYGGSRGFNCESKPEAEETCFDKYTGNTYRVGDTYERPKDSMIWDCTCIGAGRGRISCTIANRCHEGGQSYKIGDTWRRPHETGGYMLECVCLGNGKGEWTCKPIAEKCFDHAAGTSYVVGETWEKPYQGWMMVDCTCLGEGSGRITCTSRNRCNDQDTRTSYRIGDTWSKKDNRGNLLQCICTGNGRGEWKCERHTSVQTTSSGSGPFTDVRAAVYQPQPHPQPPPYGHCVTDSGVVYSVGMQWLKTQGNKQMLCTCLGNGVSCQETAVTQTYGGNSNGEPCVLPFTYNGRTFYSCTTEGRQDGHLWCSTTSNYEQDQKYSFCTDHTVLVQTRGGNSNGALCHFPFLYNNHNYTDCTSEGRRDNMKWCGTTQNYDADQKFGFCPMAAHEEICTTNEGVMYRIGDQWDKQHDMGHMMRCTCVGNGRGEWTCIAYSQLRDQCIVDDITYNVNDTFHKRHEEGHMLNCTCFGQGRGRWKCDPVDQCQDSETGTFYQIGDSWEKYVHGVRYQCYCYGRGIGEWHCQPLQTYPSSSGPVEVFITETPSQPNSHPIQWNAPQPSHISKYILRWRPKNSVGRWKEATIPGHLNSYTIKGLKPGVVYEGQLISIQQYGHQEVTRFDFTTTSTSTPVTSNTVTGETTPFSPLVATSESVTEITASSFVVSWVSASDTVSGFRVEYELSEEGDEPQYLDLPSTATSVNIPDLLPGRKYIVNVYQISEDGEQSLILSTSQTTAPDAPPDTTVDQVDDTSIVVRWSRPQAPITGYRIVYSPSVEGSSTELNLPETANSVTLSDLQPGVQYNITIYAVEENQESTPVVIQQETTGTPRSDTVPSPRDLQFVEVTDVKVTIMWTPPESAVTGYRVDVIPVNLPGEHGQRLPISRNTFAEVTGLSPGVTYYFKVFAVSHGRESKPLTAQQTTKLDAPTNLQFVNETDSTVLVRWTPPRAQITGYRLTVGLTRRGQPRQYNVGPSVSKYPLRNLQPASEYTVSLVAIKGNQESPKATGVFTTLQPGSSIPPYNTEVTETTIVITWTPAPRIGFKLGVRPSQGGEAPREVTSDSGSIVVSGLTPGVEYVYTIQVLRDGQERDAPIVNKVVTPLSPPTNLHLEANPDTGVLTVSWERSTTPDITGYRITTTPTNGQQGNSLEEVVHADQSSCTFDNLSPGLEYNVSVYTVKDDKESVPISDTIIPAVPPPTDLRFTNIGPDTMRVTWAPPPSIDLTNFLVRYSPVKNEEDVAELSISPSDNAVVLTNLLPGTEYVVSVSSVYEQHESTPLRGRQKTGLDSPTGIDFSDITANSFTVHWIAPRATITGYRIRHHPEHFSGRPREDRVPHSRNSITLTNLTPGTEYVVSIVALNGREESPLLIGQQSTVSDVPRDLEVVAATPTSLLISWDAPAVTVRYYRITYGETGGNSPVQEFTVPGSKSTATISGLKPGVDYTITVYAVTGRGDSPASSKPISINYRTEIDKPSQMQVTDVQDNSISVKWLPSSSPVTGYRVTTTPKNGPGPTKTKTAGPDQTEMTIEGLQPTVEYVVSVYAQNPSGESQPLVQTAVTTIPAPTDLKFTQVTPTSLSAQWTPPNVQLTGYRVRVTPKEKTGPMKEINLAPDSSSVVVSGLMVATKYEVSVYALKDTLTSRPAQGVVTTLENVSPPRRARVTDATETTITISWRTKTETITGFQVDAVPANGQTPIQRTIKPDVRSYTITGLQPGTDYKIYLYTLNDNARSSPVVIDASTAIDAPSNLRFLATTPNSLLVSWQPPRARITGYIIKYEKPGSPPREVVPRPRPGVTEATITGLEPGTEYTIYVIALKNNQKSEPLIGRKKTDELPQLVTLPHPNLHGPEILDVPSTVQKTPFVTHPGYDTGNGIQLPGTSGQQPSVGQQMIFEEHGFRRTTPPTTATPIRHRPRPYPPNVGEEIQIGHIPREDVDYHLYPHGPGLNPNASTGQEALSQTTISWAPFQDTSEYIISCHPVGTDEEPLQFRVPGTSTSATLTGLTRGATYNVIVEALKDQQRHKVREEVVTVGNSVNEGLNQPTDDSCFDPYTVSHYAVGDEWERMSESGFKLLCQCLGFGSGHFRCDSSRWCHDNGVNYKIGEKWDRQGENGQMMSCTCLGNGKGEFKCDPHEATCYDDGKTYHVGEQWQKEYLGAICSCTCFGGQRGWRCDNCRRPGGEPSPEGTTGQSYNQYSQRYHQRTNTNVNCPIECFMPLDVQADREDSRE

Substance: recombinant human αvβ1 integrin extracellular domains (from UniProt P06756 1-992; P05556 1-728) (receptor)
Integrin EC80 (batch dependent) [1]: 1.4 nM

Substance: recombinant human αvβ3 integrin extracellular domains (from UniProt P06756 1-992; P05106 1-718) (receptor)
Integrin EC80 (batch dependent) [2]: 3 nM

Substance: recombinant human αvβ6 integrin extracellular domains (from UniProt P06756 1-992; P18564 1-709) (receptor)
Integrin EC80 (batch dependent) [4]: 0.1 nM

Substance: recombinant mouse α5β1 integrin extracellular domains (from UniProt P11688 1-999; P09055 1-728) (receptor)
Integrin EC80 (batch dependent) [6]: 1 nM

Substance: recombinant mouse αvβ1 integrin extracellular domains (from UniProt P43406 1-988; P09055 1-728) (receptor)
Integrin EC80 (batch dependent) [7]: 4.3 nM

Substance: recombinant mouse αvβ3 integrin extracellular domains (from UniProt P43406 1-988; O54890 1-717) (receptor)
Integrin EC80 (batch dependent) [8]: 3 nM

Substance: recombinant mouse αvβ5 integrin extracellular domains (from UniProt P43406 1-988; O70309 1-719) (receptor)
Integrin EC80 (batch dependent) [9]: 0.6 nM

Next, values leading:

Integrin EC80 (batch dependent) [3]: 2.5 nM
Substance: recombinant human αvβ5 integrin extracellular domains (from UniProt P06756 1-992; P18084 1-719) (receptor)

Integrin EC80 (batch dependent) [5]: 1 nM
Substance: recombinant human αvβ8 integrin extracellular domains (from UniProt P06756 1-992; P26012 1-684) (receptor)

Integrin EC80 (batch dependent) [10]: 1.4 nM
Substance: recombinant mouse αvβ6 integrin extracellular domains (from UniProt P43406 1-988; Q9Z0T9 1-706) (receptor)

Integrin EC80 (batch dependent) [10]: 1 nM
Substance: recombinant mouse αvβ8 integrin extracellular domains (from UniProt P43406 1-988; Q0VBD0 1-679) (receptor)

Source: US20250313635A1, “ANTI-INTEGRIN ANTIBODIES AND USES THEREOF” (Merck Sharp & Dohme LLC, priority 2022, published 2025)
